System: MS2 coat protein
Test: apparent KD of MS2 coat protein; designed switch direction (-1 OFF switch, 1 ON switch): -1; higher = weaker reporter binding
Summary of the method: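 Stalled E. coli RNA polymerase transcribed designed RNA switches on Illumina chips, which were then titrated with SNAP-549-labelled MS2 coat protein, doubling from 0.7 or 1.5 nM to 3 µM. Steps lasted from 0.8–1.5 h at the lowest concentration to 10–20 min at the highest. The apparent KD is each design's median over clusters of curve-fitted normalised fluorescence.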

[1] = input ligand: microRNA oligo, concentration not stated
[2] = Eterna round: R95, input ligand: microRNA oligo, concentration not stated
[3] = Eterna round: R95, input ligand: FMN 200 uM
[4] = Eterna round: R95, input ligand: none

Sequence	apparent KD of MS2 coat protein (input ligand: FMN 200 uM)	apparent KD of MS2 coat protein (input ligand: none)	apparent KD of MS2 coat protein [1]	apparent KD of MS2 coat protein [2]	apparent KD of MS2 coat protein [3]	apparent KD of MS2 coat protein [4]
CAAAAGAAAGGAUAUACUUGAGGAUCACCCAAGUAUGCCCGCUGAAGCGGGCCCUUGAGUAGAAGGUUCAUAAA [Ened] (Eterna round: R97, puzzle: Exclusion 3)	33.2 nM	15.6 nM				
GUUGUUUAUGUAGGAUAUGCCUGGCGUGCCUUUGCAGAAGGACAUGAGGAUCACCCAUGUAUUGCGGUCUGCGUUCAGAUCGCU [salish99_ExNG1_r4_022] (Eterna round: R96, puzzle: Exclusion NG 1)	45.6 nM	34.8 nM	26.2 nM			
CUCAAGUGAGGAUAUAUACUUCCAUCAUUUGAGAUAGAAGUAUAGAAGGCACAUGAGGAUCACCCAUGUAUAAC [Lamaanan] (puzzle: Exclusion 4)				99.2 nM		
GUGUUGUAUGUAGGAUAUGCAUACUGUUAGUAUGCAGAAGGACAUGAGGAUCACCCAUGUAUAUUAUUAUUAUAUAUCAUACAU [MOD of Hoglahoo's Title] (Eterna round: R96, puzzle: Exclusion NG 1)			15.2 nM			
CAGUACUGCAAGCUAUGGGACAUGAGGAUCACCCAUGUUCGUCUUAUUGAUCUAGGUACGCUGACGUACCUAGAUCU [JL-sv1-2.20 Brourd mod] (puzzle: Sensor v3, turn-off variant 1)				20.5 nM	16.3 nM	15.9 nM
AGCCAAGCAGGAUAUACCCGGGAUAACAUGAGGAUCACCCAUGUGACCGAUUGAUGUCCUGUAGAAGGGCUUGGGA [Mod of ViennaUCT 21 - Jieux - Exclusion 5] (Eterna round: R97, puzzle: Exclusion 5)	78.1 nM	28.3 nM				
CCGCAAAUGCAGGAUAUCGUAUCGGAAACGAUACGAGAAGGGUAAACAUGAGGAUCACCCAUGUUCCUUAACGG [Mat - Exclusion 6 - Eli Mod - D98] (Eterna round: R96, puzzle: Exclusion 6)	15.5 nM	18.1 nM	13.1 nM			
GCUUUUGGGCAAGGAUAUCCUGCGCGGUUCCGGUUCGUGUCUGUCACAUGAGGAUCACCCAUGUGGGAGAAGGUGCCUGCGGUG [Design 73] (Eterna round: R96, puzzle: Exclusion NG 2)	21.5 nM	19 nM	11.7 nM			
CAUGUGUAAGGAUAUGACAAUGGUAUCUUCGGAUACCAUUGUCAGAAGGUACAUGAGGAUCACCCAUGUACAUC [Ex4-3: 17] (puzzle: Exclusion 4)				13.1 nM		
GCCGGUGUUGCGGAUAAGCUUUUCUGCUCGUUUUAUCGCACAUGAGGAUCACCCAUGUCAUCCGUCAGCAUGCAAAC [Aredardi] (puzzle: Sensor v3, turn-off variant 2)				40.7 nM	26 nM	25.6 nM
GCGCACUAAGUGAGGAUAUCGUUUAUUUAUAGGAUCGAGAAGGCACAUGAGGAUCACCCAUGUUAAACGUGCGC [JR_BMOE4_Sub100] (puzzle: Brourd's mod of Exclusion 4)				15.7 nM		
GCGGACAAGAUCGUGAGAUCAGAGACAUGAGGAUCACCCAUGUAGGAUAUCGAUUCGAAACGAAUCGAGAAGGGCAUAGUCCGC [JL denovo 6] (Eterna round: R96, puzzle: Exclusion NG 3)	20.5 nM	19.8 nM	14.9 nM			
ACGAGGAUUACAGGAUAUGAAGCUAAAACGGCGUUAGAAGGGUAUACAGAGUUACAUGAGGAUCACCCAUGUUGUGAUUUCGAA [AK ExNG1-V2-4.1] (Eterna round: R96, puzzle: Exclusion NG 1)	158 nM	134 nM	115 nM			
AGUACUAACACGAAAGUGUUAGUACAAUAAGCUUGUGAAACAUGAGGAUCACCCAUGUCCUCAUAGGCUCGUCUUAU [salish99_TOv2_r3_054] (puzzle: Sensor v3, turn-off variant 2)				607 nM	26.3 nM	18.3 nM

Reference: the supplement of paper PMC9170038
